# Measurements taken from PMC10564622 (Free Radical Biology & Medicine, 2023).
# B1: CUL3_(NTDΔ22) (CUL3 residues 23–388, I342R L346D) (domain or fragment, human, UniProt Q13618 23-388, looked up)
# chain: MTMDEKYVNSIWDLLKNAIQEIQRKNNSGLSFEELYRNAYTMVLHKHGEKLYTGLREVVTEHLINKVREDVLNSLNNNFLQTLNQAWNDHQTAMVMIRDILMYMDRVYVQQNNVENVYNLGLIIFRDQVVRYGCIRDHLRQTLLDMIARERKGEVVDRGAIRNACQMLMILGLEGRSVYEEDFEAPFLEMSAEFFQMESQKFLAENSASVYIKKVEARINEEIERVMHCLDKSTEEPIVKVVERELISKHMKTIVEMENSGLVHMLKNGKTEDLGCMYKLFSRVPNGLKTMCECMSSYLREQGKALVSEEGEGKNPVDYRQGLDDLKSRFDRFLLESFNNDRLFKQTIAGDFEYFLNLNSRSPEYL
# notes: human CUL3, Uniprot Q13618, residues 23–388, vector pNIC-CTHF, with stabilising mutations I342R and L346D; also called CUL3_(NTDΔN22); source: E. coli BL21(DE3)-pRARE2, purified (nickel sepharose, TEV cleavage, SEC); not shown: His6, C-terminal, cleaved; FLAG, C-terminal, cleaved
# B2: Biotinylated KEAP1 BTB-3-box (residues 48-213) (domain or fragment, human, UniProt Q14145 48-213, looked up)
# chain: GNRTFSYTLEDHTKQAFGIMNELRLSQQLCDVTLQVKYQDAPAAQFMAHKVVLASSSPVFKAMFTNGLREQGMEVVSIEGIHPKVMERLIEFAYTASISMGEKCVLHVMNGAVMYQIDSVVRACSDFLVQQLDPSNAIGIANFAEQIGCVELHQRAREYIYMHFGE
# modifications: biotin on the avi tag
# B3: KLHL11 BTB-BACK (residues 67-340), unlabeled (domain or fragment, human, UniProt Q9NVR0 67-340, looked up)
# chain: EAEDFECSSHCSELSWRQNEQRRQGLFCDITLCFGGAGGREFRAHRSVLAAATEYFTPLLSGQFSESRSGRVEMRKWSSEPGPEPDTVEAVIEYMYTGRIRVSTGSVHEVLELADRFLLIRLKEFCGEFLKKKLHLSNCVAIHSLAHMYTLSQLALKAADMIRRNFHKVIQDEEFYTLPFHLIRDWLSDLEITVDSEEVLFETVLKWVQRNAEERERYFEELFKLLRLSQMKPTYLTRHVKPERLVANNEVCVKLVADAVERHALRAENIQSGT
# notes: human KLHL11 BTB and BACK domains, residues 67-340, in vector pNIC28-Bsa4; source: E. coli BL21(DE3)-pRARE2, purified (nickel sepharose, TEV cleavage, SEC); not shown: His6, N-terminal, cleaved
# B4: CoraFluor-1-labeled KLHL11 BTB-BACK (domain or fragment, human, UniProt Q9NVR0 67-340, looked up)
# chain: B3 chain
# modifications: CoraFluor-1 by direct acylation with CoraFluor-1-Pfp (sites not given)
# notes: human KLHL11 BTB and BACK domains, residues 67-340, in vector pNIC28-Bsa4; TR-FRET donor protein; source: E. coli BL21(DE3)-pRARE2, purified (nickel sepharose, TEV cleavage, SEC), labeled with CoraFluor-1-Pfp; not shown: His6, N-terminal, cleaved
# B5: CoraFluor-1-labeled KLHL11_(BTB-BACK) (domain or fragment, human, UniProt Q9NVR0 67-340, looked up)
# chain: B3 chain
# modifications: CoraFluor-1 by direct acylation with CoraFluor-1-Pfp (sites not given)
# notes: human KLHL11, Uniprot Q9NVR0, residues 67–340, vector pNIC28-Bsa4; source: E. coli BL21(DE3)-pRARE2, purified (nickel sepharose, TEV cleavage, SEC), labeled with CoraFluor-1-Pfp; not shown: His6, N-terminal, cleaved
# Key:
# Settings in all cases: both partners purified
# [1] = target: CoraFluor-1-labeled KEAP1FL (full-length, untagged KEAP1, residues 1–624) (human, UniProt Q14145 1-624, CoraFluor-1 by direct acylation with CoraFluor-1-Pfp (sites not given)); assay: FRET or BRET; TR-FRET protein displacement assay: CoraFluor-1-labeled KEAP1FL + AF488-labeled CUL3NTD, unlabeled protein titrated (cmax 25 μM); assay buffer pH 7.5, 2 h, room temperature; KD from IC50 by Cheng-Prusoff
# CoraFluor-1-labeled KEAP1FL (full-length, untagged KEAP1, residues 1–624), sequence (Q14145 whole entry, the tested form may be a part): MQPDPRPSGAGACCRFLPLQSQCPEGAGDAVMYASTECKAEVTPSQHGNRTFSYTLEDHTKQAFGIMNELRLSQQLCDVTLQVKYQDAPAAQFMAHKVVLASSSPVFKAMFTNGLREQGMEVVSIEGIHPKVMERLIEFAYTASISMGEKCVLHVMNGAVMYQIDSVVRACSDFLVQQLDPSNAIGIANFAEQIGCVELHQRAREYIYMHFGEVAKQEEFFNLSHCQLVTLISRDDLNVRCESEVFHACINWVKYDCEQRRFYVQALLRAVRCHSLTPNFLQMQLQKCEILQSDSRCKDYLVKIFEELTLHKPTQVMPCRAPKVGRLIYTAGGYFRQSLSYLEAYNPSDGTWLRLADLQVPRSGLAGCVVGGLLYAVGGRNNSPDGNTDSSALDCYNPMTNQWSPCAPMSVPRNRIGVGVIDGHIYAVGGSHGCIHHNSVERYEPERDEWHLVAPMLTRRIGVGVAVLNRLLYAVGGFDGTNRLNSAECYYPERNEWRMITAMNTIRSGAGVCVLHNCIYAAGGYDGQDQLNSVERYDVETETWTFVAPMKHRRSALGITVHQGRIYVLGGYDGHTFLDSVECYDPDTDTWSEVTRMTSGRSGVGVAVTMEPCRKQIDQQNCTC
# [2] = target: B5; assay: FRET or BRET; TR-FRET protein displacement assay: CoraFluor-1-labeled KLHL11_(BTB-BACK) + AF488-labeled CUL3NTD, unlabeled protein titrated (cmax 25 μM); assay buffer pH 7.5, 2 h, room temperature; KD from IC50 by Cheng-Prusoff
# [3] = target: T1, full length CUL3-RBX1 complex (human | , UniProt Q13618 1-768; P62877 1-108); assay: BLI; Octet RED384; biotinylated KEAP1BTB-3-box immobilised on streptavidin tips; analyte in 50 mM HEPES, 300 mM NaCl, 0.5 mM TCEP, 10 mM DTT, 0.01% TWEEN-20; steady-state equilibrium analysis, 1:1 model; apparent
# T1 sequence (Q13618 whole entry, chain 1 of 2, the tested form may be a part): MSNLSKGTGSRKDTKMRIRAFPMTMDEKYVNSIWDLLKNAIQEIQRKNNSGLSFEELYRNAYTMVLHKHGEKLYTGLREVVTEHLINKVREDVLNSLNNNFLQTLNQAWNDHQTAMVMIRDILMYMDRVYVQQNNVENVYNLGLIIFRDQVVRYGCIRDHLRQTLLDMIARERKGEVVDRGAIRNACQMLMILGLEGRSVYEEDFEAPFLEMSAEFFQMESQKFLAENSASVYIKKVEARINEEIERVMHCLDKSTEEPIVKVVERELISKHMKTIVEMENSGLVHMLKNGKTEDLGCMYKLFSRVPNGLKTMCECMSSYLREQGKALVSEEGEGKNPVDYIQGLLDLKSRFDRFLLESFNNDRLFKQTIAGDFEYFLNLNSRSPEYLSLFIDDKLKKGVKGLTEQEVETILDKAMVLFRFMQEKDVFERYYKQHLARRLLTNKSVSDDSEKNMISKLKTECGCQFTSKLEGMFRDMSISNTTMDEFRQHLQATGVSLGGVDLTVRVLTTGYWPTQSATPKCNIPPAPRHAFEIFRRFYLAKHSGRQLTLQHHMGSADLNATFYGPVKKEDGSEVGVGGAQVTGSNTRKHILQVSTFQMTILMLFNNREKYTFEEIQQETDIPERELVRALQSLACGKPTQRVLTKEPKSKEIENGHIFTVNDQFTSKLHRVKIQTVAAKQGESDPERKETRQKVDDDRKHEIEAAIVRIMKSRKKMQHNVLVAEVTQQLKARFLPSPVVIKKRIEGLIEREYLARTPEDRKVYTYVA
# T1 sequence (P62877 whole entry, chain 2 of 2, the tested form may be a part): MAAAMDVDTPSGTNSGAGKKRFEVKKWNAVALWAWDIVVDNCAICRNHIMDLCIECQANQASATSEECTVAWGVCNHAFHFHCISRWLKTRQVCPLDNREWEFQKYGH
# [4] = target: T2, CUL3 N-terminal domain (CUL3NTD, residues 1-388), unlabeled (human, UniProt Q13618 1-388, I342R | L346D); assay: as above
# T2 construct: human CUL3 N-terminal domain, residues 1-388, in vector pNIC-CTHF, with the stabilising mutations I342R and L346D; source: E. coli BL21(DE3)-pRARE2, purified (nickel sepharose, TEV cleavage, SEC); not shown: His6, C-terminal, cleaved; FLAG, C-terminal, cleaved
# [5] = target: T2, CUL3 N-terminal domain (CUL3NTD, …); assay: BLI; Octet RED384; biotinylated KEAP1BTB-3-box immobilised on streptavidin tips; analyte in 50 mM HEPES, 300 mM NaCl, 0.5 mM TCEP, 10 mM DTT, 0.01% TWEEN-20; kinetic global fit, 1:1 model; apparent
# [6] = target: T2, CUL3 N-terminal domain (CUL3NTD, …); assay: as above; remark: listed apart in the source
# [7] = target: T1, full length CUL3-RBX1 complex; assay: as above
# AF488-labeled CUL3NTD [8] = target: T3, AF488-labeled CUL3NTD (human, UniProt Q13618 1-388, I342R | L346D, AF488 by direct acylation with AF488-Tfp (sites not given)); assay: FRET or BRET; TR-FRET protein displacement assay: CoraFluor-1-labeled KLHL11 (3 nM at 1.5x) and AF488-labeled CUL3NTD (45 nM at 1.5x); unlabeled protein titrated 1:3, 12 points, cmax 25 uM; 2 h at room temperature; 25 mM HEPES, 150 mM NaCl, 1 mM DTT, 0.5 mg/mL BSA, 0.005% TWEEN-20, pH 7.5; KD from IC50 by Cheng-Prusoff
# T3 construct: human CUL3 N-terminal domain, residues 1-388, in vector pNIC-CTHF, with the stabilising mutations I342R and L346D; Fluorescent tracer of the TR-FRET assays; also called AF488-CUL3NTD; source: E. coli BL21(DE3)-pRARE2, purified (nickel sepharose, TEV cleavage, SEC), labeled with AF488-Tfp; not shown: His6, C-terminal, cleaved; FLAG, C-terminal, cleaved
# [9] = target: T2, CUL3 N-terminal domain (CUL3NTD, …); assay: as above
# [10] = target: B1; assay: FRET or BRET; TR-FRET protein displacement assay: CoraFluor-1-labeled KLHL11_(BTB-BACK) + AF488-labeled CUL3NTD, unlabeled protein titrated (cmax 25 μM); assay buffer pH 7.5, 2 h, room temperature; KD from IC50 by Cheng-Prusoff
# AF488-labeled CUL3NTD [11] = target: T4, AF488-labeled CUL3NTD (human, UniProt Q13618 1-388, I342R | L346D, AF488 by direct acylation with AF488-Tfp (sites not given)); assay: FRET or BRET; TR-FRET dissociation: pre-equilibrated 20 nM CoraFluor-1-KEAP1 + 300 nM AF488-CUL3NTD, or 2 nM CoraFluor-1-KLHL11 + 45 nM AF488-CUL3NTD; 25 μM unlabeled KLHL11 added, read for 30 min; one-phase decay
# T4 construct: human CUL3, Uniprot Q13618, residues 1–388, vector pNIC-CTHF, with stabilising mutations I342R and L346D; also called AF488-CUL3NTD; source: E. coli BL21(DE3)-pRARE2, purified (nickel sepharose, TEV cleavage, SEC), labeled with AF488-Tfp; not shown: His6, C-terminal, cleaved; FLAG, C-terminal, cleaved
# AF488-labeled CUL3NTD [12] = target: T4, AF488-labeled CUL3NTD; assay: FRET or BRET; TR-FRET saturation binding: AF488-labeled CUL3NTD titrated (cmax 1000 nM) onto CoraFluor-1-labeled KEAP1 or KLHL11; 25 mM HEPES, 150 mM NaCl, 1 mM DTT, 0.5 mg/mL BSA, 0.005% TWEEN-20, pH 7.5; 2 h, room temperature; One Site – Total Binding model
binder,measurement,setting,value
B1,Kd,[1],13800 nM
same,fold decrease of affinity against CUL3NTD,[2],> 200 fold
B2,Kd,[3],4400 nM
same,Kd,[4],2900 nM
same,koff,[5],0.189 s⁻¹
same,kon,[5],36600 M⁻¹ s⁻¹
same,Kd,[6],5200 nM
same,Kd,[7],5600 nM
same,koff,[7],0.187 s⁻¹
same,kon,[7],33200 M⁻¹ s⁻¹
B3,Kd,AF488-labeled CUL3NTD [8],14 nM
B4,Kd,[9],8 nM
B5,Kd,[10],1840 nM
same,koff,AF488-labeled CUL3NTD [11],0.00381 s⁻¹
same,Kd,AF488-labeled CUL3NTD [12],20 nM
